In patent US20050064507A1, “Determining kinase specificity” (priority 2003, published 2005):

Columns and labels:
[1] = molecular target: SHP-1 phosphopeptide ADKEKSKG-pS-LKRK (SEQ ID NO:298) (human); assay: ELISA on phosphopeptides synthesized in microtiter wells; conditions: scale: normalized
[2] = molecular target: SHP-1 phosphopeptide AHAKASRT-pS-SKHKEDVY (SEQ ID NO:291) (human); assay: as above; conditions: scale: normalized
[3] = molecular target: SHP-1 phosphopeptide HAKASRTS-pS-KHKEDVYE (SEQ ID NO:294) (human); assay: as above; conditions: scale: normalized
[4] = molecular target: SHP-1 phosphopeptide HGSFLARP-pS-RKNQGDFS (SEQ ID NO:300) (human); assay: as above; conditions: scale: normalized
[5] = molecular target: SHP-1 phosphopeptide KKKLEVLQ-pS-QKGQESEY (SEQ ID NO:292) (human); assay: as above; conditions: scale: normalized
[6] = molecular target: SHP-1 phosphopeptide KNQGDFSL-pS-VRVGDQVT (SEQ ID NO:296) (human); assay: as above; conditions: scale: normalized
[7] = molecular target: SHP-1 phosphopeptide LKGRGVHG-pS-FLARPSRK (SEQ ID NO:299) (human); assay: as above; conditions: scale: normalized
[8] = molecular target: SHP-1 phosphopeptide MKNAHAKA-pS-RTSSKHKE (SEQ ID NO:289) (human); assay: as above; conditions: scale: normalized
[9] = molecular target: SHP-1 phosphopeptide PLNCSDPT-pS-ERWYHGHM (SEQ ID NO:297) (human); assay: as above; conditions: scale: normalized
[10] = molecular target: SHP-1 phosphopeptide PSEPGGVL-pS-FLDQINQR (SEQ ID NO:293) (human); assay: as above; conditions: scale: normalized
[11] = molecular target: SHP-1 phosphopeptide PWTFLVRE-pS-LSQPGDFV (SEQ ID NO:295) (human); assay: as above; conditions: scale: normalized
[12] = molecular target: SHP-1 phosphopeptide RVILQGRD-pS-NIPGSDYI (SEQ ID NO:290) (human); assay: as above; conditions: scale: normalized
[13] = molecular target: LIMK-2 peptide … (SEQ ID NO:121) (human); assay: pPKC Ab binding to biotinylated peptide on avidin-coated plate
[14] = molecular target: LIMK-2 peptide … (SEQ ID NO:121) after phosphorylation by PKC-theta (human); assay: as above
[15] = molecular target: MLK3 peptide … (SEQ ID NO:76) (human); assay: as above
[16] = molecular target: MLK3 peptide … (SEQ ID NO:76) after phosphorylation by PKC-theta (human); assay: as above
[17] = molecular target: LIMK-2 peptide … (SEQ ID NO:121) after phosphorylation by PKC-theta (human); assay: pPKC Ab binding to biotinylated peptide on avidin-coated plate; signal after minus signal without PKC-theta
[18] = molecular target: MLK3 peptide … (SEQ ID NO:76) after phosphorylation by PKC-theta (human); assay: as above

Q: For “phospho-PKC motif antibody (Phospho-(Ser) PKC Substrate Antibody, Cell Signaling Technology)”, which Binding of pPKC antibody [1] is on record?
A: 100

Q: What about the Binding of pPKC antibody [2] of the same substance?
A: 12

Q: What about the Binding of pPKC antibody [3] of the same substance?
A: 7

Q: What about the Binding of pPKC antibody [4] of the same substance?
A: 39

Q: What about the Binding of pPKC antibody [5] of the same substance?
A: 11

Q: And the Binding of pPKC antibody [6]?
A: 3

Q: And the Binding of pPKC antibody [7]?
A: 54

Q: What about the Binding of pPKC antibody [8] of the same substance?
A: 18

Q: What about the Binding of pPKC antibody [9] of the same substance?
A: 0

Q: And the Binding of pPKC antibody [10]?
A: 9

Q: And the Binding of pPKC antibody [11]?
A: 5

Q: And the Binding of pPKC antibody [12]?
A: 13

Q: What about the pPKC Ab Signal on peptide without exposure to PKC-theta [13] of the same substance?
A: 0.02

Q: And the pPKC Ab Signal on peptide after exposure to PKC-theta phosphorylation [14]?
A: 1.13

Q: And the pPKC Ab Signal on peptide without exposure to PKC-theta [15]?
A: 0.07

Q: And the pPKC Ab Signal on peptide after exposure to PKC-theta phosphorylation [16]?
A: 1.02

Q: What about the pPKC Ab Signal amount dependent on PKC phosphorylation [17] of the same substance?
A: 1.11

Q: What about the pPKC Ab Signal amount dependent on PKC phosphorylation [18] of the same substance?
A: 0.95
